B1: G protein-activated inward rectifier potassium channel 1 (Rattus norvegicus (Rat)), P63251 (parent)
chain: MSALRRKFGDDYQVVTTSSSGSGLQPQGPGQGPQQQLVPKKKRQRFVDKNGRCNVQHGNLGSETSRYLSDLFTTLVDLKWRWNLFIFILTYTVAWLFMASMWWVIAYTRGDLNKAHVGNYTPCVANVYNFPSAFLFFIETEATIGYGYRYITDKCPEGIILFLFQSILGSIVDAFLIGCMFIKMSQPKKRAETLMFSEHAVISMRDGKLTLMFRVGNLRNSHMVSAQIRCKLLKSRQTPEGEFLPLDQLELDVGFSTGADQLFLVSPLTICHVIDAKSPFYDLSQRSMQTEQFEVVVILEGIVETTGMTCQARTSYTEDEVLWGHRFFPVISLEEGFFKVDYSQFHATFEVPTPPYSVKEQEEMLLMSSPLIAPAITNSKERHNSVECLDGLDDISTKLPSKLQKITGREDFPKKLLRMSSTTSEKAYSLGDLPMKLQRISSVPGNSEEKLVSKTTKMLSDPMSQSVADLPPKLQKMAGGPTRMEGNLPAKLRKMNSDRFT

What was measured:
Conditions in all cases: with kapca_bovin PRKACA
[1] = variants of: B1
[2] = variants of: B1; remark: listed apart in the source
[3] = variants of: B1; remark: listed apart in the source
[4] = variants of: B1; remark: listed apart in the source
[5] = variants of: B1; remark: listed apart in the source

Row | effect of a mutation on the interaction [1] | effect of a mutation on the interaction [2] | effect of a mutation on the interaction [3] | effect of a mutation on the interaction [4] | effect of a mutation on the interaction [5] | Variant
1 | disrupting interaction | decreasing interaction |  |  |  | MSALRRKFGDDYQVVTTSSSGSGLQPQGPGQGPQQQLVPKKKRQRFVDKNGRCNVQHGNLGSETSRYLSDLFTTLVDLKWRWNLFIFILTYTVAWLFMASMWWVIAYTRGDLNKAHVGNYTPCVANVYNFPSAFLFFIETEATIGYGYRYITDKCPEGIILFLFQSILGSIVDAFLIGCMFIKMSQPKKRAETLMFSEHAVISMRDGKLTLMFRVGNLRNSHMVSAQIRCKLLKSRQTPEGEFLPLDQLELDVGFSTGADQLFLVSPLTICHVIDAKSPFYDLSQRSMQTEQFEVVVILEGIVETTGMTCQARTSYTEDEVLWGHRFFPVISLEEGFFKVDYSQFHATFEVPTPPYSVKEQEEMLLMSSPLIAPAITNSKERHNCVECLDGLDDISTKLPSKLQKITGREDFPKKLLRMSSTTSEKAYSLGDLPMKLQRISSVPGNSEEKLVSKTTKMLSDPMSQSVADLPPKLQKMAGGPTRMEGNLPAKLRKMNSDRFT [S385C]
2 |  |  | decreasing interaction | disrupting interaction |  | MSALRRKFGDDYQVVTTSSSGSGLQPQGPGQGPQQQLVPKKKRQRFVDKNGRCNVQHGNLGSETSRYLSDLFTTLVDLKWRWNLFIFILTYTVAWLFMASMWWVIAYTRGDLNKAHVGNYTPCVANVYNFPSAFLFFIETEATIGYGYRYITDKCPEGIILFLFQSILGSIVDAFLIGCMFIKMSQPKKRAETLMFSEHAVISMRDGKLTLMFRVGNLRNSHMVSAQIRCKLLKSRQTPEGEFLPLDQLELDVGFSTGADQLFLVSPLTICHVIDAKSPFYDLSQRSMQTEQFEVVVILEGIVETTGMTCQARTSYTEDEVLWGHRFFPVISLEEGFFKVDYSQFHATFEVPTPPYSVKEQEEMLLMSSPLIAPAITNSKERHNSVECLDGLDDISTKLPSKLQKICGREDFPKKLLRMSSTTSEKAYSLGDLPMKLQRISSVPGNSEEKLVSKTTKMLSDPMSQSVADLPPKLQKMAGGPTRMEGNLPAKLRKMNSDRFT [T407C]
3 |  |  |  | disrupting interaction | decreasing interaction | MSALRRKFGDDYQVVTTSSSGSGLQPQGPGQGPQQQLVPKKKRQRFVDKNGRCNVQHGNLGSETSRYLSDLFTTLVDLKWRWNLFIFILTYTVAWLFMASMWWVIAYTRGDLNKAHVGNYTPCVANVYNFPSAFLFFIETEATIGYGYRYITDKCPEGIILFLFQSILGSIVDAFLIGCMFIKMSQPKKRAETLMFSEHAVISMRDGKLTLMFRVGNLRNSHMVSAQIRCKLLKSRQTPEGEFLPLDQLELDVGFSTGADQLFLVSPLTICHVIDAKSPFYDLSQRSMQTEQFEVVVILEGIVETTGMTCQARTSYTEDEVLWGHRFFPVISLEEGFFKVDYSQFHATFEVPTPPYSVKEQEEMLLMSSPLIAPAITNSKERHNSVECLDGLDDISTKLPCKLQKITGREDFPKKLLRMSSTTSEKAYSLGDLPMKLQRISSVPGNSEEKLVSKTTKMLSDPMSQSVADLPPKLQKMAGGPTRMEGNLPAKLRKMNSDRFT [S401C]
